# Measurements reported in patent US20030054336A1.
# What was measured:
# [1] = target: Antigen 1 (Consensus B, biotinylated peptide from gp41 epitope region II of HIV1 subtype B) (HIV1 subtype B (consensus)); test: bridge ELISA, Bi-Antigen 1 + Dig-Antigen 3
# [2] = target: Antigen 2 (Consensus D, biotinylated peptide from gp41 epitope region II of HIV1 subtype D) (HIV1 subtype D (consensus)); test: bridge ELISA, Bi-Antigen 2 + Dig-Antigen 4
substance,measurement,setting,value
Negative control,signal,[1],0.05 U
same,signal,[2],0.03 U
